B1: PEX5 peptide 240-255 (Peroxisomal targeting signal 1 receptor), 16-mer library wild type / PEX14 Pex14 (PEX14 PEX14, residues 16-84) (parent complex)
chain 1: AEQWAAEFIQQQGTSD
chain 2: TPGSENVLPREPLIATAVKFLQNSRVRQSPLATRRAFLKKKGLTDEEIDMAFQQSGTAADEPSSLGPAT

Variants of: B1
Assay: proteomic peptide phage display deep mutational scan (ProP-PD DMS): M13 P8 16-mer library selected against immobilised GST-tagged bait for four days (rounds), NGS of the eluted pools per day and pseudo-replica; bait immobilised on MaxiSorp plates (10 µg), library pre-cleared on GST, 2 h binding at 4 °C, five washes; one round per day, days 1-4; value from days 2 and 3

Q: chain 1 T14Q was tested. Which screen value did it give?
A: 0.000835 average fractional NGS count over selection days 2 and 3 (reads of this peptide / all reads for the bait, averaged over …

Q: How did the screen value turn out when chain 1 T14W was run?
A: 0.000366 average fractional NGS count over selection days 2 and 3 (reads of this peptide / all reads for the bait, averaged over …

Q: chain 1 T14N was tested. Which screen value did it give?
A: 0.000434 average fractional NGS count over selection days 2 and 3 (reads of this peptide / all reads for the bait, averaged over …

Q: With chain 1 T14G as the variant, how does the screen value read?
A: 0.000345 average fractional NGS count over selection days 2 and 3 (reads of this peptide / all reads for the bait, averaged over …

Q: With chain 1 T14P as the variant, how does the screen value read?
A: 0.00162 average fractional NGS count over selection days 2 and 3 (reads of this peptide / all reads for the bait, averaged over …

Q: How did the screen value turn out when chain 1 T14E was run?
A: 0.000967 average fractional NGS count over selection days 2 and 3 (reads of this peptide / all reads for the bait, averaged over …

Q: For chain 1 T14F, which screen value is on record?
A: 0.00226 average fractional NGS count over selection days 2 and 3 (reads of this peptide / all reads for the bait, averaged over …

Q: Which screen value does the source give for chain 1 T14V here?
A: 0.000546 average fractional NGS count over selection days 2 and 3 (reads of this peptide / all reads for the bait, averaged over …

Q: For chain 1 A6F, which screen value is on record?
A: 0.00131 average fractional NGS count over selection days 2 and 3 (reads of this peptide / all reads for the bait, averaged over …

Q: How did the screen value turn out when chain 1 A6T was run?
A: 0.0091 average fractional NGS count over selection days 2 and 3 (reads of this peptide / all reads for the bait, averaged over …

Q: For chain 1 A6I, which screen value is on record?
A: 0.00623 average fractional NGS count over selection days 2 and 3 (reads of this peptide / all reads for the bait, averaged over …

Q: How did the screen value turn out when chain 1 A6D was run?
A: 0.0111 average fractional NGS count over selection days 2 and 3 (reads of this peptide / all reads for the bait, averaged over …

Q: With chain 1 A6E as the variant, how does the screen value read?
A: 0.000449 average fractional NGS count over selection days 2 and 3 (reads of this peptide / all reads for the bait, averaged over …

Q: With chain 1 A6W as the variant, how does the screen value read?
A: 0.00422 average fractional NGS count over selection days 2 and 3 (reads of this peptide / all reads for the bait, averaged over …

Q: Which screen value does the source give for chain 1 A6R here?
A: 0.00273 average fractional NGS count over selection days 2 and 3 (reads of this peptide / all reads for the bait, averaged over …

Q: chain 1 A6N was tested. Which screen value did it give?
A: 0.00234 average fractional NGS count over selection days 2 and 3 (reads of this peptide / all reads for the bait, averaged over …

Q: chain 1 A6G was tested. Which screen value did it give?
A: 0.00471 average fractional NGS count over selection days 2 and 3 (reads of this peptide / all reads for the bait, averaged over …

Q: chain 1 A6S was tested. Which screen value did it give?
A: 0.00105 average fractional NGS count over selection days 2 and 3 (reads of this peptide / all reads for the bait, averaged over …

Q: How did the screen value turn out when chain 1 F8M was run?
A: 0.00109 average fractional NGS count over selection days 2 and 3 (reads of this peptide / all reads for the bait, averaged over …

Q: How did the screen value turn out when chain 1 F8Y was run?
A: 0.000429 average fractional NGS count over selection days 2 and 3 (reads of this peptide / all reads for the bait, averaged over …

Q: For chain 1 Q10G, which screen value is on record?
A: 0.00258 average fractional NGS count over selection days 2 and 3 (reads of this peptide / all reads for the bait, averaged over …

Q: Which screen value does the source give for chain 1 Q10P here?
A: 0.00113 average fractional NGS count over selection days 2 and 3 (reads of this peptide / all reads for the bait, averaged over …

Q: With chain 1 Q10M as the variant, how does the screen value read?
A: 0.00324 average fractional NGS count over selection days 2 and 3 (reads of this peptide / all reads for the bait, averaged over …

Q: chain 1 Q10L was tested. Which screen value did it give?
A: 0.00121 average fractional NGS count over selection days 2 and 3 (reads of this peptide / all reads for the bait, averaged over …

Q: How did the screen value turn out when chain 1 Q10N was run?
A: 0.00173 average fractional NGS count over selection days 2 and 3 (reads of this peptide / all reads for the bait, averaged over …

Q: With chain 1 Q10R as the variant, how does the screen value read?
A: 0.00109 average fractional NGS count over selection days 2 and 3 (reads of this peptide / all reads for the bait, averaged over …

Q: For chain 1 Q10V, which screen value is on record?
A: 0.00204 average fractional NGS count over selection days 2 and 3 (reads of this peptide / all reads for the bait, averaged over …

Q: How did the screen value turn out when chain 1 Q10T was run?
A: 0.00279 average fractional NGS count over selection days 2 and 3 (reads of this peptide / all reads for the bait, averaged over …

Q: Which screen value does the source give for chain 1 S15L here?
A: 0.00083 average fractional NGS count over selection days 2 and 3 (reads of this peptide / all reads for the bait, averaged over …

Q: chain 1 S15R was tested. Which screen value did it give?
A: 0.00217 average fractional NGS count over selection days 2 and 3 (reads of this peptide / all reads for the bait, averaged over …

Q: Which screen value does the source give for chain 1 S15G here?
A: 0.00221 average fractional NGS count over selection days 2 and 3 (reads of this peptide / all reads for the bait, averaged over …

Q: For chain 1 S15T, which screen value is on record?
A: 0.00362 average fractional NGS count over selection days 2 and 3 (reads of this peptide / all reads for the bait, averaged over …

Q: How did the screen value turn out when chain 1 S15Q was run?
A: 0.0029 average fractional NGS count over selection days 2 and 3 (reads of this peptide / all reads for the bait, averaged over …

Q: How did the screen value turn out when chain 1 I9D was run?
A: 0.000867 average fractional NGS count over selection days 2 and 3 (reads of this peptide / all reads for the bait, averaged over …

Q: Which screen value does the source give for chain 1 I9L here?
A: 0.000942 average fractional NGS count over selection days 2 and 3 (reads of this peptide / all reads for the bait, averaged over …

Q: Which screen value does the source give for chain 1 I9N here?
A: 0.00185 average fractional NGS count over selection days 2 and 3 (reads of this peptide / all reads for the bait, averaged over …

Q: Which screen value does the source give for chain 1 I9M here?
A: 0.00443 average fractional NGS count over selection days 2 and 3 (reads of this peptide / all reads for the bait, averaged over …

Q: With chain 1 I9K as the variant, how does the screen value read?
A: 0.000873 average fractional NGS count over selection days 2 and 3 (reads of this peptide / all reads for the bait, averaged over …

Q: How did the screen value turn out when chain 1 I9Q was run?
A: 0.00295 average fractional NGS count over selection days 2 and 3 (reads of this peptide / all reads for the bait, averaged over …

Q: Which screen value does the source give for chain 1 I9Y here?
A: 0.0023 average fractional NGS count over selection days 2 and 3 (reads of this peptide / all reads for the bait, averaged over …

Q: Which screen value does the source give for chain 1 I9E here?
A: 0.00149 average fractional NGS count over selection days 2 and 3 (reads of this peptide / all reads for the bait, averaged over …

Q: With chain 1 I9H as the variant, how does the screen value read?
A: 0.0279 average fractional NGS count over selection days 2 and 3 (reads of this peptide / all reads for the bait, averaged over …

Q: For chain 1 I9V, which screen value is on record?
A: 0.00275 average fractional NGS count over selection days 2 and 3 (reads of this peptide / all reads for the bait, averaged over …

Q: For chain 1 I9A, which screen value is on record?
A: 0.00188 average fractional NGS count over selection days 2 and 3 (reads of this peptide / all reads for the bait, averaged over …

Q: How did the screen value turn out when chain 1 I9T was run?
A: 0.000404 average fractional NGS count over selection days 2 and 3 (reads of this peptide / all reads for the bait, averaged over …

Q: With chain 1 A1N as the variant, how does the screen value read?
A: 0.00349 average fractional NGS count over selection days 2 and 3 (reads of this peptide / all reads for the bait, averaged over …

Q: How did the screen value turn out when chain 1 A1W was run?
A: 0.00504 average fractional NGS count over selection days 2 and 3 (reads of this peptide / all reads for the bait, averaged over …

Q: Which screen value does the source give for chain 1 A1E here?
A: 0.000945 average fractional NGS count over selection days 2 and 3 (reads of this peptide / all reads for the bait, averaged over …

Q: Which screen value does the source give for chain 1 A1K here?
A: 0.000873 average fractional NGS count over selection days 2 and 3 (reads of this peptide / all reads for the bait, averaged over …

Q: chain 1 A1Q was tested. Which screen value did it give?
A: 0.00549 average fractional NGS count over selection days 2 and 3 (reads of this peptide / all reads for the bait, averaged over …

Q: With chain 1 A1I as the variant, how does the screen value read?
A: 0.000927 average fractional NGS count over selection days 2 and 3 (reads of this peptide / all reads for the bait, averaged over …

Q: With chain 1 A1P as the variant, how does the screen value read?
A: 0.000938 average fractional NGS count over selection days 2 and 3 (reads of this peptide / all reads for the bait, averaged over …

Q: chain 1 A1D was tested. Which screen value did it give?
A: 0.00705 average fractional NGS count over selection days 2 and 3 (reads of this peptide / all reads for the bait, averaged over …

Q: How did the screen value turn out when chain 1 A1H was run?
A: 0.0701 average fractional NGS count over selection days 2 and 3 (reads of this peptide / all reads for the bait, averaged over …

Q: For chain 1 A1Y, which screen value is on record?
A: 0.017 average fractional NGS count over selection days 2 and 3 (reads of this peptide / all reads for the bait, averaged over …

Q: Which screen value does the source give for chain 1 A1M here?
A: 0.000375 average fractional NGS count over selection days 2 and 3 (reads of this peptide / all reads for the bait, averaged over …

Q: With chain 1 Q12L as the variant, how does the screen value read?
A: 0.00232 average fractional NGS count over selection days 2 and 3 (reads of this peptide / all reads for the bait, averaged over …

Q: chain 1 Q12G was tested. Which screen value did it give?
A: 0.00219 average fractional NGS count over selection days 2 and 3 (reads of this peptide / all reads for the bait, averaged over …

Q: chain 1 Q12D was tested. Which screen value did it give?
A: 0.00045 average fractional NGS count over selection days 2 and 3 (reads of this peptide / all reads for the bait, averaged over …

Q: Which screen value does the source give for chain 1 Q12W here?
A: 0.000968 average fractional NGS count over selection days 2 and 3 (reads of this peptide / all reads for the bait, averaged over …

Q: For chain 1 Q12V, which screen value is on record?
A: 0.0011 average fractional NGS count over selection days 2 and 3 (reads of this peptide / all reads for the bait, averaged over …

Q: With chain 1 Q12E as the variant, how does the screen value read?
A: 0.00182 average fractional NGS count over selection days 2 and 3 (reads of this peptide / all reads for the bait, averaged over …

Q: Which screen value does the source give for chain 1 Q12F here?
A: 0.00145 average fractional NGS count over selection days 2 and 3 (reads of this peptide / all reads for the bait, averaged over …

Q: chain 1 Q12Y was tested. Which screen value did it give?
A: 0.00103 average fractional NGS count over selection days 2 and 3 (reads of this peptide / all reads for the bait, averaged over …

Q: Which screen value does the source give for chain 1 A5Q here?
A: 0.00841 average fractional NGS count over selection days 2 and 3 (reads of this peptide / all reads for the bait, averaged over …

Q: chain 1 A5Y was tested. Which screen value did it give?
A: 0.00174 average fractional NGS count over selection days 2 and 3 (reads of this peptide / all reads for the bait, averaged over …

Q: Which screen value does the source give for chain 1 A5H here?
A: 0.0461 average fractional NGS count over selection days 2 and 3 (reads of this peptide / all reads for the bait, averaged over …

Q: For chain 1 A5S, which screen value is on record?
A: 0.00197 average fractional NGS count over selection days 2 and 3 (reads of this peptide / all reads for the bait, averaged over …

Q: How did the screen value turn out when chain 1 A5K was run?
A: 0.00108 average fractional NGS count over selection days 2 and 3 (reads of this peptide / all reads for the bait, averaged over …

Q: Which screen value does the source give for chain 1 A5M here?
A: 0.00306 average fractional NGS count over selection days 2 and 3 (reads of this peptide / all reads for the bait, averaged over …

Q: For chain 1 A5D, which screen value is on record?
A: 0.00199 average fractional NGS count over selection days 2 and 3 (reads of this peptide / all reads for the bait, averaged over …

Q: For chain 1 A5R, which screen value is on record?
A: 0.00499 average fractional NGS count over selection days 2 and 3 (reads of this peptide / all reads for the bait, averaged over …

Q: For chain 1 G13Y, which screen value is on record?
A: 0.000307 average fractional NGS count over selection days 2 and 3 (reads of this peptide / all reads for the bait, averaged over …

Q: chain 1 G13M was tested. Which screen value did it give?
A: 0.000519 average fractional NGS count over selection days 2 and 3 (reads of this peptide / all reads for the bait, averaged over …

Q: With chain 1 G13E as the variant, how does the screen value read?
A: 0.000748 average fractional NGS count over selection days 2 and 3 (reads of this peptide / all reads for the bait, averaged over …

Source: paper PMC12102759 (2025)
